B1: OR4K15 (parent)
chain: GUUAACGGUCAUAGGCCAUGGAAACUAGGAGCACCAUUUCGCUGCCAGUGAAGAAAUGAACAAAGAAAAUCUGGGCCAGGCAGGCAUCAAAAGAAAUAGUCUUGCGCUCAACCAGAAAGUCUGUAAUCAUUUUAAGGGUA

Variants of: B1
Test: self-cleavage, relative activity (ratio to wild type); higher = more cleavage; in vitro, sequencing; the parent is a self-cleaving ribozyme

Variant | self-cleavage
A66G A89G | 1.62
A66G U72A | 0.32
A66G A69G | 1.02
A66G A69C | 1.67
A64G A86U | 2.21
A64G G137A | 0.96
A63G U102A | 1.39
A63G U102G | 0.54
A63G U102C | 1.43
A66G A78U | 0.5
A64G G75U | 0.12
A64C A116G | 0.83
A66G A114C | 0.06
A66G A114G | 0.48
A64G U70C | 0.57
A64U A89U | 0.92
A63G U127G | 2.41
A66G U108A | 0.02
A66G U108C | 0.02
A64G A68U | 1.42
A64U G123A | 2.31
A64U U72C | 0.34
A63U A94U | 1.96
A66G G136A | 1.72

Variant | self-cleavage
A64G A129U | 0.99
A64G A129C | 1.8
A64G A129G | 1.14
A64U A90G | 0.32
A64G A126C | 1.16
A64U U103C | 0.87
A64U U103A | 1.08
A64G U108A | 0.01
A64G A134G | 1.41
G65A A78G | 0.2
A66G G80C | 0.12
A63U U120C | 1.25
A64G A135U | 1.28
A63G U70G | 1.56
A63G U70A | 1.47
A63G U70C | 1.08
A66G A98U | 1.08
A66G A117U | 0.6
A66G A117G | 1.88
A63U A82G | 0.36
A66C C113A | 0.02
A63U U122C | 1.57
A63U A90U | 1.93
A64G U97C | 1.63

Variant | self-cleavage
A63G U132C | 1.67
A64U A92C | 1.53
A63G G106U | 0.02
A63G U131A | 0.45
A63G U131C | 1.2
A64G U131A | 0.6
A63G U130C | 1.13
A63G U130G | 1.92
A63G U72C | 0.27
A63G U72A | 0.33
A66G A67U | 1.61
A66G A67C | 1.66
A64U U108C | 0.02
A64C A140U | 1.86
A64C A95G | 2.58
A63U A118G | 1.71
A66G A126U | 1.54
A66G A135G | 0.47
A64G A91G | 1.33
A66G A82G | 0.26
A64G C101U | 0.42
A63G U139A | 1.74
A64U A116G | 0.21
A64C G75C | 0.21

Variant | self-cleavage
A64G A118C | 0.2
A63U U130C | 0.28
G65U A111G | 0.06
A64U A140G | 1.39
A64G A66U | 0.44
A64G A66G | 1.39
A64U U122A | 1.78
A66G A96G | 1.87
A63U | 0.82
A64C C105U | 0.17
A64U A94U | 1.63
A64G G106A | 0.04
G65A A91G | 0.96
A64G U102C | 2.06
A64G U127C | 0.86
A66G A110G | 0.15
A66G A110C | 0.37
A64G A78G | 0.28
A63G U87G | 1.35
A64G U132A | 1.85
A64G U132C | 1.53
A66C A67G | 0.46
A64G A114G | 0.31
A64G A114U | 0.1

Variant | self-cleavage
A64U A117G | 1.18
A63U U72C | 0.41
A64G A94G | 1.74
A64G A94U | 1.61
A66G U102C | 1.84
A64G U130C | 0.45
A64G U124C | 1.57
A63U A140U | 1.52
A66G A90G | 1.17
A64G A96C | 0.76
A64G C77U | 1.43
A64U A110G | 0.11
A66G C77A | 0.91
A63U A64G | 0.94
A64G A89U | 2.18
A64G A98C | 1.73
A64U A82U | 0.19
A66C U131A | 1.1
A64G G74U | 0.24
A64G G74A | 0.36
A64U A126G | 1.12
A63G U103G | 0.01
A64U U127C | 1.66
A64G A110U | 1.1

Variant | self-cleavage
A64G A116G | 0.61
A64G A140U | 1.37
A64G U72C | 0.27
A64G U72A | 0.35
A63G U97C | 2.55
A63U A96G | 1.74
A66G C105G | 0.03
A64C C76U | 0.26
A63U U100C | 2.04
A66G G73U | 0.3
A63U U127C | 1.25
A66G G83A | 1.56
A63U A86G | 2.75
A63G U124A | 0.72
A66G G104U | 0.02
A66G G104A | 0.03
A64U U87G | 0.62
A63U A98G | 0.8
A64G G123A | 1.66
A66G A92U | 1.98
A64C | 1.69
A64U | 1.23
A64G | 1.2
A64U U102A | 1.07

Variant | self-cleavage
A64U U102C | 2.23
G65A A66G | 1.13
A64G A125G | 0.28
A64G A125U | 2.92
A63U U132C | 1.98
A64C A94G | 2.25
A66G A116G | 0.6
A63U U103C | 1.58
A63U A95G | 1.78
A64U C77U | 1.56
A64G U103C | 1.2
A66G U103A | 0.32
A66G U103C | 1.06
A66G A118G | 2.17
A66G A118C | 1.11
A64U G115A | 0.02
A64C U102A | 0.71
G65U U87C | 2.23
A66G G75A | 0.08
A66G A129G | 0.85
A63U A134G | 0.32
A64C G137A | 1.49
A64U A129G | 1.34

Reference: the RNAGym collection of RNA variant scans (doi:10.7554/elife.90254)
